Target: T1, rhIL-23 (human, UniProt Q9NPF7 20-189; P29460 23-328)
T1 construct: Recombinant human IL-23 coated on immunoassay plates; also called IL-23 ligand
T1 sequence (looked up) 1: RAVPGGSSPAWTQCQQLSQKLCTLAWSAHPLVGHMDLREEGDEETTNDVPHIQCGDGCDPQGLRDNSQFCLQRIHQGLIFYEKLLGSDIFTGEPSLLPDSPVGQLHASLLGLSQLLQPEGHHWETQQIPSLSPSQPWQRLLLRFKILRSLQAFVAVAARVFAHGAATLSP
T1 sequence (looked up) 2: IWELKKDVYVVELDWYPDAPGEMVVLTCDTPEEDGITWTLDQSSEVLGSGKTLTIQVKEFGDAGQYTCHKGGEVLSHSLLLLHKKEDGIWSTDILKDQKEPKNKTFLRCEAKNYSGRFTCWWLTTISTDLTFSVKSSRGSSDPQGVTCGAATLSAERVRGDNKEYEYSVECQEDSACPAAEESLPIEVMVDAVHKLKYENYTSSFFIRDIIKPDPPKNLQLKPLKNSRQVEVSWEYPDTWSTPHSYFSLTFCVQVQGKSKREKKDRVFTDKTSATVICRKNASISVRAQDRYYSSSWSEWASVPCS
Assay: ELISA, ligand coated on plate, conditioned medium with soluble receptor
Protocol: Ligand Binding Assays: Conditioned media containing […] were generated in transfected or virally-infected 293 cells. Receptor concentrations in collected media were determined by ELISA and Western blot. Ligand binding assays were performed on immunoassay plates coated with target ligand rhIL-17 or rhIL-23. Typically conditioned media containing serial dilutions of soluble receptor were incubated with immobilized ligand 1-2 hours at room temperature. Unbound ligand was washed away and bound protein was detected and quantified with receptor-specific detection antibodies, as is performed in an ELISA.
In order to test the ability of the soluble IL-17 and IL-23 receptor fusions to bind to their respective ligands, the following experiments were conducted. In one experiment, the ability of the soluble receptors to bind immobilized ligands was explored. Conditioned media for each receptor was generated from Ad-infected A459 cells and quantified by ELISA as described. Binding was measured on ELISA plates pre-coated with IL-23 or IL-17 ligand. Relative binding was compared to purchased receptor/Fc chimeras (R&D Systems, Minneapolis, Minn.). The control IL-17R/Fc from R&D contains human IL-17R(Met1-Trp320) fused to IEGRMD and human IgG1(Pro100-Lys330). […]

B1: sIL23R-9gly-CH3 (Fc fusion)
chain: GITNINCSGHIWVEPATIFKMGMNISIYCQAAIKNCQPRKLHFYKNGIKERFQITRINKTTARLWYKNFLEPHASMYCTAECPKHFQETLICGKDISSGYPPDIPDEVTCVIYEYSGNMTCTWNAGKLTYIDTKYVVHVKSLETEEEQQYLTSSYINISTDSLQGGKKYLVWVQAANALGMEESKQLQIHLDDIVIPSAAVISRAETINATVPKTIIYWDSQTTIEKVSCEMRYKATTNQTWNVKEFDTNFTYVQQSEFYLEPNIKYVFQVRCQETGKRYWQPWSSPFFHKTPETVPQVTSKAFQHDTWNSGLTVASISTGHLTGGGGGGGGGQPREPQVYTLPPSRDELTKNQVSLTCLVKGFYPSDIAVEWESNGQPENNYKTTPPVLDSDGSFFLYSKLTVDKSRWQQGNVFSCSVMHEALHNHYTQKSLSLSPGK
notes: Fusion to the CH3 domain of human IgG1 only, with no hinge or CH2; It was tested as conditioned medium from adenovirus-infected cells; also called hIL-23R-9gly-CH3 chimera; soluble IL-23r
- binding result: binds
